The target in this test is T1, GST-ACLY (UniProt P53396 1-1101).
T1 construct: ATP citrate lyase (ACLY), cloned into pGEX-4T1; also called GST-ACLY protein; source: E. coli BL21 (DE3), purified (Glutathione Sepharose 4B)
T1 sequence (looked up): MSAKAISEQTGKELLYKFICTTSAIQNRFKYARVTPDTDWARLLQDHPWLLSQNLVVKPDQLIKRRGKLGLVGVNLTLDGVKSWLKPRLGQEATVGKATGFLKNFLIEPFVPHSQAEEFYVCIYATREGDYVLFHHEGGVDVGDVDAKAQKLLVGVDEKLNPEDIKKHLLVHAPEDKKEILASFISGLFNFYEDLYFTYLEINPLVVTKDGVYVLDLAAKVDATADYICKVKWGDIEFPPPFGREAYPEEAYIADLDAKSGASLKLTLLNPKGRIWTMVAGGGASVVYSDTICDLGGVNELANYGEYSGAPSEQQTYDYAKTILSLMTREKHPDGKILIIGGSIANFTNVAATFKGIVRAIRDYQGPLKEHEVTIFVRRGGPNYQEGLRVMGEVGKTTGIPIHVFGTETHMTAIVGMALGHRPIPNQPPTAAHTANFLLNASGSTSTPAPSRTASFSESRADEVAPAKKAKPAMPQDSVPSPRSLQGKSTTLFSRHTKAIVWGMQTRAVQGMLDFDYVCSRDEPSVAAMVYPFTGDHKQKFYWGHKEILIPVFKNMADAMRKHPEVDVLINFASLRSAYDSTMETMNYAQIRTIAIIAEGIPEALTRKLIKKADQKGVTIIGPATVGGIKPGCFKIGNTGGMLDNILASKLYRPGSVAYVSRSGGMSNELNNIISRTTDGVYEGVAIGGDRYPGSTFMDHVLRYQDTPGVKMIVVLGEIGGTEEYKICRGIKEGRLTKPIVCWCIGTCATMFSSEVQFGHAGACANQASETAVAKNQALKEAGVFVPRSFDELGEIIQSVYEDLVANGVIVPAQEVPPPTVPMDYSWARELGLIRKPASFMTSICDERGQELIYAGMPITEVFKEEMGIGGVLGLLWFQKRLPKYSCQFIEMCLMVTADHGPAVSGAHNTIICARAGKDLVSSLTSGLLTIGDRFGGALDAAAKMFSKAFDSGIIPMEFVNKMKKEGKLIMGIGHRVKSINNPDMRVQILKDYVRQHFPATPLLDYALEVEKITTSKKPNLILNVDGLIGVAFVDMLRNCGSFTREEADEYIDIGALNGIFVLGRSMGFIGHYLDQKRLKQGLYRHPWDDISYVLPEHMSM
Description: pull-down; GST-ACLY or GST-ACLY deletion mutants bound to Glutathione Sepharose 4B, incubated with purified Flag-NAT10; WB with anti-Flag. The following applies: both partners purified.

B1: Flag-NAT10-His (natural protein, UniProt Q9H0A0 1-1025, looked up)
chain: MHRKKVDNRIRILIENGVAERQRSLFVVVGDRGKDQVVILHHMLSKATVKARPSVLWCYKKELGFSSHRKKRMRQLQKKIKNGTLNIKQDDPFELFIAATNIRYCYYNETHKILGNTFGMCVLQDFEALTPNLLARTVETVEGGGLVVILLRTMNSLKQLYTVTMDVHSRYRTEAHQDVVGRFNERFILSLASCKKCLVIDDQLNILPISSHVATMEALPPQTPDESLGPSDLELRELKESLQDTQPVGVLVDCCKTLDQAKAVLKFIEGISEKTLRSTVALTAARGRGKSAALGLAIAGAVAFGYSNIFVTSPSPDNLHTLFEFVFKGFDALQYQEHLDYEIIQSLNPEFNKAVIRVNVFREHRQTIQYIHPADAVKLGQAELVVIDEAAAIPLPLVKSLLGPYLVFMASTINGYEGTGRSLSLKLIQQLRQQSAQSQVSTTAENKTTTTARLASARTLYEVSLQESIRYAPGDAVEKWLNDLLCLDCLNITRIVSGCPLPEACELYYVNRDTLFCYHKASEVFLQRLMALYVASHYKNSPNDLQMLSDAPAHHLFCLLPPVPPTQNALPEVLAVIQVCLEGEISRQSILNSLSRGKKASGDLIPWTVSEQFQDPDFGGLSGGRVVRIAVHPDYQGMGYGSRALQLLQMYYEGRFPCLEEKVLETPQEIHTVSSEAVSLLEEVITPRKDLPPLLLKLNERPAERLDYLGVSYGLTPRLLKFWKRAGFVPVYLRQTPNDLTGEHSCIMLKTLTDEDEADQGGWLAAFWKDFRRRFLALLSYQFSTFSPSLALNIIQNRNMGKPAQPALSREELEALFLPYDLKRLEMYSRNMVDYHLIMDMIPAISRIYFLNQLGDLALSAAQSALLLGIGLQHKSVDQLEKEIELPSGQLMGLFNRIIRKVVKLFNEVQEKAIEEQMVAAKDVVMEPTMKTLSDDLDEAAKEFQEKHKKEVGKLKSMDLSEYIIRGDDEEWNEVLNKAGPNASIISLKSDKKRKLEAKQEPKQSKKLKNRETKNKKDMKLKRKK
notes: N-acetyltransferase 10 (NAT10), cloned into pFast-Bac1 as Flag-NAT10-His; also called purified Flag-NAT10; source: baculovirus-infected sf9 cells, purified (Ni-NTA agarose)
For B1, the binding result is recorded as “binds”.

(Values after paper PMC11291975, “Chemotherapy-induced acetylation of ACLY by NAT10 promotes its nuclear accumulation and acetyl-CoA production to drive chemoresistance in hepatocellular carcinoma” (Cell Death & Disease, 2024).)
